Source: paper PMC3441139

Biological target: N-terminal EGFP fusion to zebrafish P2X4 crystallized construct (EGFP-ΔP2X4-A) (Danio rerio) (UniProt F8W463)
Assay: SEC

stoichiometry N: 3
Substance: N-terminal EGFP fusion to zebrafish P2X4 crystallized construct (EGFP-ΔP2X4-A) (from UniProt F8W463 1-389) (receptor)
